Measured values taken from US5723299, “Somatostatin receptors” (Arch Development Corporation, dated 1998).
No end group written: not given here.

T1: mouse somatostatin receptor SSTR2 (mouse)
T1 chain: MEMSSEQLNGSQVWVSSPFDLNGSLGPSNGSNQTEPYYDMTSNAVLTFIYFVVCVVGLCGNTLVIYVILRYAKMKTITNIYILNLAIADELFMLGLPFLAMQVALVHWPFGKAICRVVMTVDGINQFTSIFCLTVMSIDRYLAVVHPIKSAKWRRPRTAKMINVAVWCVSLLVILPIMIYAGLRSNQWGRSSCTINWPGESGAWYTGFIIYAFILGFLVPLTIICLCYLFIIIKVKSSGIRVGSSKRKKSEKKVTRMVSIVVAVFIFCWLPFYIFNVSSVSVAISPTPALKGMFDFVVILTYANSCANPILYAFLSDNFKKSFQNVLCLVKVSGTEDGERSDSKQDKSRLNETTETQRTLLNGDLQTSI


Key:
[1] = target: T1, mouse somatostatin receptor SSTR2; experiment: competition of [125I]iodo-Tyr11-somatostatin-14 binding to CHO cells transfected with mouse SSTR2
From the text: At 1.5 PstI/XmnI fragment of the human SSTR1 gene and a 1.2 kb XbaI fragment of the mouse SSTR2 gene were inserted into the mammalian expression vectors pCMV6b and 6c, respectively (a gift of Dr. B. Chapman, Chiron Corp., Emeryville, Calif.). The resulting constructs were co-transfected with pSV2neo into the dihydrofolate reductase-deficient Chinese hamster ovary (CHO) cell line, DG44, using Lipofectin Reagent (GIBCO BRL, Gaithersburg, Md.). Stable transfectants were selected and maintained in α-MEM (GIBCO BRL) containing 400 vg/ml G418. Each cell line was grown to confluency in 6-well, 35-mm diameter plates at 37° C. The cells were washed with buffer containing 10 mM HEPES, 5 mM KH_2PO_4, 5 mM MgCl_2, 150 mM NaCl, and 1% (wt./vol.) bovine serum albumin (all at pH 7.4), and were stabilized in the same buffer for 30 min at 22° C. […] Incubated cells were washed twice with 2-ml portions of ice-cold buffer and were dissolved in 1 ml of 8M urea in 3M acetic acid. The suspended cells were transferred to a tube, the well was washed with 1 ml of the same solution, and the combined extracts were measured for radioactivity by use of a gamma-counter.

[2] = target: human somatostatin receptor SSTR1 (human); experiment: competition of [125I]iodo-Tyr11-somatostatin-14 binding to CHO cells stably expressing human SSTR1
Chain of human somatostatin receptor SSTR1 (human) (chain, as listed by the source): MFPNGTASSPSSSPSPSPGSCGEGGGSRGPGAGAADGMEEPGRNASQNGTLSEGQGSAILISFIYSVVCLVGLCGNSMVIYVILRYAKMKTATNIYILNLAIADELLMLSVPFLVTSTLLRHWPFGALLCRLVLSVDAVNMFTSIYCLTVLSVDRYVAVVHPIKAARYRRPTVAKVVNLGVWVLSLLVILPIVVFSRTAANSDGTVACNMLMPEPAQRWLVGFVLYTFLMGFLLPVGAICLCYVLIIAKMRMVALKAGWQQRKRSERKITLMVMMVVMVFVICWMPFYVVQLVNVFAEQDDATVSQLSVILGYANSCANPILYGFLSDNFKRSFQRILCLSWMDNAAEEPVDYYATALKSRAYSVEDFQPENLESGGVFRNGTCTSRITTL
Method: The resulting constructs were co-transfected with pSV2neo into the dihydrofolate reductase-deficient Chinese hamster ovary (CHO) cell line, DG44, using Lipofectin Reagent (GIBCO BRL, Gaithersburg, Md.). Stable transfectants were selected and maintained in α-MEM (GIBCO BRL) containing 400 vg/ml G418. Each cell line was grown to confluency in 6-well, 35-mm diameter plates at 37° C. The cells were washed with buffer containing 10 mM HEPES, 5 mM KH_2PO_4, 5 mM MgCl_2, 150 mM NaCl, and 1% (wt./vol.) bovine serum albumin (all at pH 7.4), and were stabilized in the same buffer for 30 min at 22° C. […] Incubated cells were washed twice with 2-ml portions of ice-cold buffer and were dissolved in 1 ml of 8M urea in 3M acetic acid. The suspended cells were transferred to a tube, the well was washed with 1 ml of the same solution, and the combined extracts were measured for radioactivity by use of a gamma-counter.
The pharmacological characteristics of SSTR1 were examined in CHO cells that were stably expressing this receptor.

Binder	IC50 [1] [nM]	IC50 [2] [nM]
AGCKNFFWKTFTSC (not fully specified (bridges); cysteine pairing not given here) [somatostatin-14]	1.6	–
SANSNPAMAPRERKAGCKNFFWKTFTSC [somatostatin-28]	–	4.7
